Results: US7229755 (Dana-Farber, dated 2007)

Assays:
[1] = target: (Gal4 binding domain)-hMsh2 fusion (pAS1-hMSH2) (human, UniProt P04386 1-147 (Saccharomyces cerevisiae entry), limits assumed); experiment: cell-based or functional assay
[2] = target: T1, hMsh2 protein with a hexa-HIS and factor Xa leader peptide at the N-terminus (overproduced in E. coli from a … (human, UniProt P43246 1-934)); experiment: gel-shift (supershift) of hMsh2 bound to a 32P-labelled 39-bp GT-mismatch duplex, with E. coli extract containing hMlh1
T1 construct: The leader peptide was not cleaved; The preparation was more than 50% pure; also called human Msh2; MSH2hu protein; not shown: hexa-HIS and factor Xa leader peptide from the pET vector derivative (Invitrogen)
Description: Mismatch binding by human mismatch repair proteins was studied using a gel-shift binding assay. Briefly, protein fractions are incubated with a ^32P-labelled 39-basepair oligonucleotide duplex that was designed to minimize intramolecular interactions (Oligo Designs), and also contained a GT mismatch at position 20. Incubations were done for 10 minutes at 23° C. in 20 mM Tris (pH 7.5), 50 mM KCl, 1 mM DTT, and 0.1 mM EDTA to allow formation of protein-DNA complexes. Several different competitor nucleic acids (e.g. poly dI-dC, an otherwise identical 39-mer that lacked the mismatch, and/or unlabelled mismatched substrate) were added to minimize nonspecific binding. Reactions were then loaded onto a 6% acrylamide gel in TBE, and were electrophoresed.

β-galactosidase activity (GAL4 promoter-β-galactosidase reporter, yeast Two-Hybrid) [1] [fold] | binding result [2] | Binder
~100 |  | (Gal4 activation domain)-hMlh1 fusion (pACTII-hMLH1) (other, not shown: large carriers) MSFVAGVIRRLDETVVNRIAAGEVIQRPANAIKEMIENCLDAKSTSIQVIVKEGGLKLIQIQDNGTGIRKEDLDIVCERFTTSKLQSFEDLASISTYGFRGEALASISHVAHVTITTKTADGKCAYRASYSDGKLKAPPKPCAGNQGTQITVEDLFYNIATRRKALKNPSEEYGKILEVVGRYSVHNAGISFSVKKQGETVADVRTLPNASTVDNIRSIFGNAVSRELIEIGCEDKTLAFKMNGYISNANYSVKKCIFLLFINHRLVESTSLRKAIETVYAAYLPKNTHPFLYLSLEISPQNVDVNVHPTKHEVHFLHEESILERVQQHIESKLLGSNSSRMYFTQTLLPGLAGPSGEMVKSTTSLTSSSTSGSSDKVYAHQMVRTDSREQKLDAFLQPLSKPLSSQPQAIVTEDKTDISSGRARQQDEEMLELPAPAEVAAKNQSLEGDTTKGTSEMSEKRGPTSSNPRKRHREDSDVEMVEDDSRKEMTAACTPRRRIINLTSVLSLQEEINEQGHEVLREMLHNHSFVGCVNPQWALAQHQTKLYLLNTTKLSEELFYQILIYDFANFGVLRLSEPAPLFDLAMLALDSPESGWTEEDGPKEGLAEYIVEFLKKKAEMLADYFSLEIDEEGNLIGLPLLIDNYVPPLEGLPIFILRLATEVNWDEEKECFESLSKECAMFYSIRKQYISEESTLSGQQSEVPGSIPNSWKWTVEHIVYKALRSHILPPKHFTEDGNILQLANLPDLYKVFERC
 | binds | hMlh1 protein overproduced in E. coli from pET-hMLH1 constructs (used as clarified bacterial extract) (other, The protein was not purified and was used as clarified bacterial extract; also called hMLH1 gene product) MSFVAGVIRRLDETVVNRIAAGEVIQRPANAIKEMIENCLDAKSTSIQVIVKEGGLKLIQIQDNGTGIRKEDLDIVCERFTTSKLQSFEDLASISTYGFRGEALASISHVAHVTITTKTADGKCAYRASYSDGKLKAPPKPCAGNQGTQITVEDLFYNIATRRKALKNPSEEYGKILEVVGRYSVHNAGISFSVKKQGETVADVRTLPNASTVDNIRSIFGNAVSRELIEIGCEDKTLAFKMNGYISNANYSVKKCIFLLFINHRLVESTSLRKAIETVYAAYLPKNTHPFLYLSLEISPQNVDVNVHPTKHEVHFLHEESILERVQQHIESKLLGSNSSRMYFTQTLLPGLAGPSGEMVKSTTSLTSSSTSGSSDKVYAHQMVRTDSREQKLDAFLQPLSKPLSSQPQAIVTEDKTDISSGRARQQDEEMLELPAPAEVAAKNQSLEGDTTKGTSEMSEKRGPTSSNPRKRHREDSDVEMVEDDSRKEMTAACTPRRRIINLTSVLSLQEEINEQGHEVLREMLHNHSFVGCVNPQWALAQHQTKLYLLNTTKLSEELFYQILIYDFANFGVLRLSEPAPLFDLAMLALDSPESGWTEEDGPKEGLAEYIVEFLKKKAEMLADYFSLEIDEEGNLIGLPLLIDNYVPPLEGLPIFILRLATEVNWDEEKECFESLSKECAMFYSIRKQYISEESTLSGQQSEVPGSIPNSWKWTVEHIVYKALRSHILPPKHFTEDGNILQLANLPDLYKVFERC
